Drawing on PMC10501182, this text covers stoichiometry N for 1 substance.

This assay concerns the target Protein A (ProA)-tagged INTAC (human) (UniProt Q8N201). Nature of the assay: pull-down; in vitro; ProA-tagged INTAC incubated with the indicated purified subcomplexes and immobilised onto IgG resin, washed, SDS-PAGE and Coomassie blue staining; some lanes with DSIF, NELF, a DNA-RNA scaffold or a PP2A inhibitor added.

As usually defined, the stoichiometry N is the number of molecules, sites or subunits per partner or assembly. “human RNA polymerase II overexpressed in Expi293F cells (from UniProt P24928 1-1970; P30876 1-1174; P19387 1-275; P52435 1-117) (complex)”: the stoichiometry N stood at 1.
